Data taken from patent publication US20230250154A1.

Columns and labels:
ADAMTS4 (human) = ADAMTS4 (human) (UniProt O75173); test: cell-based or functional assay
ADAMTS5 (human) = ADAMTS5 (human) (UniProt Q9UNA0); test: cell-based or functional assay
Sequence of ADAMTS5 (human) (Q9UNA0 262-622 limits assumed): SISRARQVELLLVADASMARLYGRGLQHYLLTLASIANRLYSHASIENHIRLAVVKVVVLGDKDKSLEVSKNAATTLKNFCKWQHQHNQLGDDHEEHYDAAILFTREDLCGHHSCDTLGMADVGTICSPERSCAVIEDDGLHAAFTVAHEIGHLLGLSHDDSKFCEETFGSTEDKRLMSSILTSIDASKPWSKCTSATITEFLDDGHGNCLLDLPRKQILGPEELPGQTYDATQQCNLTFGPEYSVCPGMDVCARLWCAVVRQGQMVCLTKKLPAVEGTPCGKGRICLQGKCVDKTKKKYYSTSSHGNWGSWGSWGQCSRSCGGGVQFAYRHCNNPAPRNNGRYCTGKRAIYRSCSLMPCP

Sequence of ADAMTS4 (human) (O75173 213-685 limits assumed): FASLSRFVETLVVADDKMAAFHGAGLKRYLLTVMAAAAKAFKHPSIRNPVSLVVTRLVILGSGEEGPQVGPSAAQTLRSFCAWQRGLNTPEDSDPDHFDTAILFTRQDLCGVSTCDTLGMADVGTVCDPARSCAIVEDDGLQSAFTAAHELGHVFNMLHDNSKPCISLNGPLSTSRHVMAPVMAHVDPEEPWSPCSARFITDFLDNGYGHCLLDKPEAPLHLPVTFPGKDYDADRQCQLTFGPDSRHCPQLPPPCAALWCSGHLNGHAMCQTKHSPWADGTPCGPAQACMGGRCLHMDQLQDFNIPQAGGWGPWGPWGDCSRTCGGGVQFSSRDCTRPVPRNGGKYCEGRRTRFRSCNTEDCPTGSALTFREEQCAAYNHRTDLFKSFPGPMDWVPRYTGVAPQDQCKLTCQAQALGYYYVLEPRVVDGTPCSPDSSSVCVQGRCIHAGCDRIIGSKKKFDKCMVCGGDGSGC

purified human A2M (from UniProt P01023 24-1474)
IC50 needed to inhibit cartilage catabolism (ADAMTS4 (human)): 3 µg/mL | IC50, inhibition of cartilage catabolism in bovine cartilage explants (ADAMTS5 (human)): 7000 µg/mL | IC50 needed to inhibit cartilage catabolism (ADAMTS5 (human)): 7 µg/mL | Maximum inhibition of cartilage catabolism in bovine cartilage explants (ADAMTS5 (human)): 90%
